Experimental data reported in article PMC9482650, “Quantitative fragmentomics allow affinity mapping of interactomes” (Nature Communications, 2022).

target: T1, APBA1_1, Q02410; experiment: holdup assay; parameters: key: below the threshold = too weak to quantify, mostly under pKd 3.1 to 4; conditions: plain residues with an end cap or a label only (N-terminal biotin on a linker: ado-ado)
T1 sequence (Q02410 651-752, limits assumed, looked up): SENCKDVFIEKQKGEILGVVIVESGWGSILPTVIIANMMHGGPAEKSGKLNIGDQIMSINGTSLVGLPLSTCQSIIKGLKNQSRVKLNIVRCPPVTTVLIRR

**Q.** How did the pKd turn out when KRPEMTSSSV [MUC3A, MUC3B, Q02505;Q9H195] was run?
**A.** The pKd was “below the threshold”.

target: T2, APBA1_2, Q02410; experiment: holdup assay; parameters: key: below the threshold = too weak to quantify, mostly under pKd 3.1 to 4; conditions: plain residues with an end cap or a label only (N-terminal biotin on a linker: ado-ado)
T2 sequence (Q02410 742-832, limits assumed, looked up): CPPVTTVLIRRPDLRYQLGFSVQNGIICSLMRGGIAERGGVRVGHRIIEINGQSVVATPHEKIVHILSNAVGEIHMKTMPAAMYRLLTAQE

**Q.** With KRPEMTSSSV [MUC3A, MUC3B, Q02505;Q9H195] as the binder, how does the pKd read?
**A.** Its pKd is 1.83.

target: T3, DLG3_3, Q92796; experiment: holdup assay; parameters: key: below the threshold = too weak to quantify, mostly under pKd 3.1 to 4; conditions: plain residues with an end cap or a label only (N-terminal biotin on a linker: ado-ado)
T3 sequence (Q92796 374-475, limits assumed, looked up): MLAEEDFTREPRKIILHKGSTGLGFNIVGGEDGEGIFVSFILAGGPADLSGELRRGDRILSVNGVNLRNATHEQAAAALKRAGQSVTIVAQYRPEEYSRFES

**Q.** KRPEMTSSSV [MUC3A, MUC3B, Q02505;Q9H195] was tested. Which pKd did it give?
**A.** Its pKd is 1.84.

target: DLG4_1, P78352; experiment: holdup assay; parameters: key: below the threshold = too weak to quantify, mostly under pKd 3.1 to 4; conditions: plain residues with an end cap or a label only (N-terminal biotin on a linker: ado-ado)
Sequence (P78352 62-152): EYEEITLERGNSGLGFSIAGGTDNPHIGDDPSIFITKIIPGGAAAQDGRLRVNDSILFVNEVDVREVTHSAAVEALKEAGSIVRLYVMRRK

**Q.** How did the pKd turn out when KRPEMTSSSV [MUC3A, MUC3B, Q02505;Q9H195] was run?
**A.** The pKd was “below the threshold”.

target: GRID2IP_2, A4D2P6; experiment: holdup assay; parameters: key: below the threshold = too weak to quantify, mostly under pKd 3.1 to 4; conditions: plain residues with an end cap or a label only (N-terminal biotin on a linker: ado-ado)
Sequence (A4D2P6 272-370): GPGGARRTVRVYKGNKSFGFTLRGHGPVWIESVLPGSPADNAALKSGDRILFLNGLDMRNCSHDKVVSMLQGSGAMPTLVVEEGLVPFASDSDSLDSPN

**Q.** With KRPEMTSSSV [MUC3A, MUC3B, Q02505;Q9H195] as the binder, how does the pKd read?
**A.** Its pKd is 3.73.

target: GRIP2_3, Q9C0E4; experiment: holdup assay; parameters: key: below the threshold = too weak to quantify, mostly under pKd 3.1 to 4; conditions: plain residues with an end cap or a label only (N-terminal biotin on a linker: ado-ado)
Sequence (Q9C0E4 238-339): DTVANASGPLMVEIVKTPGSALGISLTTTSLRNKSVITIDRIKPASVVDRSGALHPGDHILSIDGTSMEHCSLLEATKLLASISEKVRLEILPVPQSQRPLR

**Q.** For KRPEMTSSSV [MUC3A, MUC3B, Q02505;Q9H195], which pKd is on record?
**A.** Its pKd is “below the threshold”.

target: GRIP2_5, Q9C0E4; experiment: holdup assay; parameters: key: below the threshold = too weak to quantify, mostly under pKd 3.1 to 4; conditions: plain residues with an end cap or a label only (N-terminal biotin on a linker: ado-ado)
Sequence (Q9C0E4 544-642): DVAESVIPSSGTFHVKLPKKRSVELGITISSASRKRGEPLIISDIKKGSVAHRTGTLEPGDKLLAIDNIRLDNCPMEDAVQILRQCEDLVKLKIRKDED

**Q.** How did the pKd turn out when KRPEMTSSSV [MUC3A, MUC3B, Q02505;Q9H195] was run?
**A.** The pKd was “below the threshold”.

target: Inadl_4, Q8NI35; experiment: holdup assay; parameters: key: below the threshold = too weak to quantify, mostly under pKd 3.1 to 4; conditions: plain residues with an end cap or a label only (N-terminal biotin on a linker: ado-ado)
Sequence (Q8NI35 547-651): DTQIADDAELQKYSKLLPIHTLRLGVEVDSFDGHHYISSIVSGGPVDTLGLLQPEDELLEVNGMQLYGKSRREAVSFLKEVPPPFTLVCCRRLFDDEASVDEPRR

**Q.** KRPEMTSSSV [MUC3A, MUC3B, Q02505;Q9H195] was tested. Which pKd did it give?
**A.** Its pKd is “below the threshold”.

target: LDB3, O75112; experiment: holdup assay; parameters: key: below the threshold = too weak to quantify, mostly under pKd 3.1 to 4; conditions: plain residues with an end cap or a label only (N-terminal biotin on a linker: ado-ado)
Sequence (O75112 1-94): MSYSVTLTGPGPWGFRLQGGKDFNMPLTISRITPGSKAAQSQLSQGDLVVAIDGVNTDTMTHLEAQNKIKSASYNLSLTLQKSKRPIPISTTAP

**Q.** With KRPEMTSSSV [MUC3A, MUC3B, Q02505;Q9H195] as the binder, how does the pKd read?
**A.** Its pKd is “below the threshold”.

target: MAGI1_1, Q96QZ7; experiment: holdup assay; parameters: key: below the threshold = too weak to quantify, mostly under pKd 3.1 to 4; conditions: plain residues with an end cap or a label only (N-terminal biotin on a linker: ado-ado)
Sequence (Q96QZ7 1-106): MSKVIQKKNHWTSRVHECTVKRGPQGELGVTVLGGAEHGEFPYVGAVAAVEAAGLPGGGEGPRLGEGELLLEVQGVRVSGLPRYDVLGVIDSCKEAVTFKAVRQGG

**Q.** Which pKd does the source give for KRPEMTSSSV [MUC3A, MUC3B, Q02505;Q9H195] here?
**A.** The pKd was “below the threshold”.

target: MAST2, Q6P0Q8; experiment: holdup assay; parameters: key: below the threshold = too weak to quantify, mostly under pKd 3.1 to 4; conditions: plain residues with an end cap or a label only (N-terminal biotin on a linker: ado-ado)
Sequence (Q6P0Q8 1099-1202): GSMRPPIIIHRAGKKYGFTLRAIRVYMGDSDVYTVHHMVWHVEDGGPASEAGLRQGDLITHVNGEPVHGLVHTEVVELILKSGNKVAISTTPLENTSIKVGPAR

**Q.** For KRPEMTSSSV [MUC3A, MUC3B, Q02505;Q9H195], which pKd is on record?
**A.** Its pKd is 4.77.

target: T4, MPDZ_10, O75970; experiment: holdup assay; parameters: key: below the threshold = too weak to quantify, mostly under pKd 3.1 to 4; conditions: plain residues with an end cap or a label only (N-terminal biotin on a linker: ado-ado)
T4 sequence (O75970 1624-1722, limits assumed, looked up): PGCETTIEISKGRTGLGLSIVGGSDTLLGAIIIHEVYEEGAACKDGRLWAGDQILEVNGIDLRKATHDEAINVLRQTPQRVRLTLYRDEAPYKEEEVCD

**Q.** How did the pKd turn out when KRPEMTSSSV [MUC3A, MUC3B, Q02505;Q9H195] was run?
**A.** Its pKd is 3.73.

target: T5, MPDZ_5, O75970; experiment: holdup assay; parameters: key: below the threshold = too weak to quantify, mostly under pKd 3.1 to 4; conditions: plain residues with an end cap or a label only (N-terminal biotin on a linker: ado-ado)
T5 sequence (O75970 695-796, limits assumed, looked up): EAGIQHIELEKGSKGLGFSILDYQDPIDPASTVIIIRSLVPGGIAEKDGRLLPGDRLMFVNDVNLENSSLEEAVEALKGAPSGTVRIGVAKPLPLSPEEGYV

**Q.** KRPEMTSSSV [MUC3A, MUC3B, Q02505;Q9H195] was tested. Which pKd did it give?
**A.** The pKd was “below the threshold”.

target: T6, MPP7, Q5T2T1; experiment: holdup assay; parameters: key: below the threshold = too weak to quantify, mostly under pKd 3.1 to 4; conditions: plain residues with an end cap or a label only (N-terminal biotin on a linker: ado-ado)
T6 sequence (Q5T2T1 134-230, limits assumed, looked up): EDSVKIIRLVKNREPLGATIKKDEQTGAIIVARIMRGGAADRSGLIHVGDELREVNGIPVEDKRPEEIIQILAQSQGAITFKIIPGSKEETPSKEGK

**Q.** Which pKd does the source give for KRPEMTSSSV [MUC3A, MUC3B, Q02505;Q9H195] here?
**A.** The pKd was “below the threshold”.

target: NHERF2_2, Q15599; experiment: holdup assay; parameters: key: below the threshold = too weak to quantify, mostly under pKd 3.1 to 4; conditions: plain residues with an end cap or a label only (N-terminal biotin on a linker: ado-ado)
Sequence (Q15599 142-238): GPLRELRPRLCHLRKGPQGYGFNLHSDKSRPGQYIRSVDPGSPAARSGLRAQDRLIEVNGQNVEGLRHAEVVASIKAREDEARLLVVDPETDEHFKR

**Q.** KRPEMTSSSV [MUC3A, MUC3B, Q02505;Q9H195] was tested. Which pKd did it give?
**A.** Its pKd is “below the threshold”.

target: NHERF4_2, Q86UT5; experiment: holdup assay; parameters: key: below the threshold = too weak to quantify, mostly under pKd 3.1 to 4; conditions: plain residues with an end cap or a label only (N-terminal biotin on a linker: ado-ado)
Sequence (Q86UT5 220-308): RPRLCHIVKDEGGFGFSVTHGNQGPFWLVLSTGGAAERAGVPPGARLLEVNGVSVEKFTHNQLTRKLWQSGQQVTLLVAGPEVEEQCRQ

**Q.** KRPEMTSSSV [MUC3A, MUC3B, Q02505;Q9H195] was tested. Which pKd did it give?
**A.** Its pKd is “below the threshold”.

target: PARD3_3, Q8TEW0; experiment: holdup assay; parameters: key: below the threshold = too weak to quantify, mostly under pKd 3.1 to 4; conditions: plain residues with an end cap or a label only (N-terminal biotin on a linker: ado-ado)
Sequence (Q8TEW0 582-685): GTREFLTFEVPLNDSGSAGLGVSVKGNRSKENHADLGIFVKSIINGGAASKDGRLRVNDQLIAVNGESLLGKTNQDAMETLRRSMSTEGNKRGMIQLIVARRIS

**Q.** How did the pKd turn out when KRPEMTSSSV [MUC3A, MUC3B, Q02505;Q9H195] was run?
**A.** The pKd was “below the threshold”.
